Test results from US20210062165A1.

Legend:
FUS^N-Citrine-PixE-VioE = experiment: cell-based or functional assay
[1] = target: FUS^N-FusionRed-Cry2olig-VioE; experiment: cell-based or functional assay
Chain of FUS^N-FusionRed-Cry2olig-VioE (Q96524 other isoform, or with tags, fused parts or gaps): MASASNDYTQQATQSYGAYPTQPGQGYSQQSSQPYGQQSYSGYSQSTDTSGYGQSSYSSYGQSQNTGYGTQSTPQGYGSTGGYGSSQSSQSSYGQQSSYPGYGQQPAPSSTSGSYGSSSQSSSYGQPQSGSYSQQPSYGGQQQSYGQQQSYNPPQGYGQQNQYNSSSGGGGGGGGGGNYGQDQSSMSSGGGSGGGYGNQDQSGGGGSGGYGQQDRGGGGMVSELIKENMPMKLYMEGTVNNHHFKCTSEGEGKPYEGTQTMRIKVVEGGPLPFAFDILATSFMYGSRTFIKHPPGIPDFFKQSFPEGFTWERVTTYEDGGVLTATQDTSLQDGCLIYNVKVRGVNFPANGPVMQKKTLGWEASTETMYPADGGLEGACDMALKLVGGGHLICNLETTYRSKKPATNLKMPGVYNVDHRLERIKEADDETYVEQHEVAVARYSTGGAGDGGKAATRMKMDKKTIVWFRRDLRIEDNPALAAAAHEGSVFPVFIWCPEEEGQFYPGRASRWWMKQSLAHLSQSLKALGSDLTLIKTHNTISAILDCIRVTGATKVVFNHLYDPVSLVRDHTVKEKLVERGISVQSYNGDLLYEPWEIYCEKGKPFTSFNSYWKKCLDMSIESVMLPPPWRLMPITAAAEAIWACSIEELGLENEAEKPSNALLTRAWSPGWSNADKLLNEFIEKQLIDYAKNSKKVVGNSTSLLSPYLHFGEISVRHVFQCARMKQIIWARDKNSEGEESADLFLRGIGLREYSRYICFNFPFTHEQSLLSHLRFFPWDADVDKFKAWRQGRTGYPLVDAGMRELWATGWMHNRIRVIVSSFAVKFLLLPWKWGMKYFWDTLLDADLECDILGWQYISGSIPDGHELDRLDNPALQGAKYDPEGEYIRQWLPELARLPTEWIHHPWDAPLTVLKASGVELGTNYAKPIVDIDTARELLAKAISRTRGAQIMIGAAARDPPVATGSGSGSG

Chain of FUS^N-Citrine-Cry2olig-VioC (P35637 1-214, tags or fused parts left off): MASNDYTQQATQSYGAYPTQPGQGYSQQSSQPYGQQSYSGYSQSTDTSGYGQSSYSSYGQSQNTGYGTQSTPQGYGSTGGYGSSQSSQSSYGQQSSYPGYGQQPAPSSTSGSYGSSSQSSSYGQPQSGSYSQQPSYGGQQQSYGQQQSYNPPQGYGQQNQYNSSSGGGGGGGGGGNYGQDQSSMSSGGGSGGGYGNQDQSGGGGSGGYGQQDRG
Chain of VioC-FUS^N-Citrine-Cry2olig (Q9S3U9 1-429, tags or fused parts left off): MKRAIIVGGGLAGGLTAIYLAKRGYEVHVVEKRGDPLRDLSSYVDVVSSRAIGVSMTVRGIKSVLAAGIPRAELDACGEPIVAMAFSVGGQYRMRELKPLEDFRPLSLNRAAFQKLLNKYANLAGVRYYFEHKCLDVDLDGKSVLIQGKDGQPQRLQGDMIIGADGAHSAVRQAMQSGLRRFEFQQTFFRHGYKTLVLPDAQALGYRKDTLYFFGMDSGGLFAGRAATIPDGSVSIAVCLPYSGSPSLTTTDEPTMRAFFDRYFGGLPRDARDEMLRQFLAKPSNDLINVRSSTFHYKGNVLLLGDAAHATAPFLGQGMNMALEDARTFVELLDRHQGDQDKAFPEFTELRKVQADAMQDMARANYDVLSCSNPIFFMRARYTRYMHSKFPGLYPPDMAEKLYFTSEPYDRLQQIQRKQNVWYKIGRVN

Work on “FUS^N-FusionRed-PixD-VioC (from UniProt Q9S3U9 1-429)” yielded a change in deoxyviolacein production from light to dark (HPLC, strain YEZ257, [Zeo]max 1,200 mg/L) (FUS^N-Citrine-PixE-VioE) of 6.1 fold and a change in deoxyviolacein-to-PDV ratio from light to dark (HPLC, strain YEZ257, [Zeo]max 1,200 mg/L) (FUS^N-Citrine-PixE-VioE) of 18.4 fold.
“VioC-FUS^N-Citrine-Cry2olig (from UniProt Q9S3U9 1-429; P35637 1-214; Q96524 1-498)” showed a deoxyviolacein production under continuous blue light relative to dark (HPLC, strain YNS36) [1] of 2 fold.
“FUS^N-Citrine-Cry2olig-VioC (from UniProt P35637 1-214; Q96524 1-498; Q9S3U9 1-429)” showed a deoxyviolacein production under continuous blue light relative to dark (HPLC, strain YNS34) [1] of 2 fold.
